From patent publication US20150225704

Molecular target: myc-tagged full-length palmitoyl acyl transferase zinc-finger DHHC type containing 17 (zD17) (UniProt Q8IUH5)
Sequence (Q8IUH5 whole entry): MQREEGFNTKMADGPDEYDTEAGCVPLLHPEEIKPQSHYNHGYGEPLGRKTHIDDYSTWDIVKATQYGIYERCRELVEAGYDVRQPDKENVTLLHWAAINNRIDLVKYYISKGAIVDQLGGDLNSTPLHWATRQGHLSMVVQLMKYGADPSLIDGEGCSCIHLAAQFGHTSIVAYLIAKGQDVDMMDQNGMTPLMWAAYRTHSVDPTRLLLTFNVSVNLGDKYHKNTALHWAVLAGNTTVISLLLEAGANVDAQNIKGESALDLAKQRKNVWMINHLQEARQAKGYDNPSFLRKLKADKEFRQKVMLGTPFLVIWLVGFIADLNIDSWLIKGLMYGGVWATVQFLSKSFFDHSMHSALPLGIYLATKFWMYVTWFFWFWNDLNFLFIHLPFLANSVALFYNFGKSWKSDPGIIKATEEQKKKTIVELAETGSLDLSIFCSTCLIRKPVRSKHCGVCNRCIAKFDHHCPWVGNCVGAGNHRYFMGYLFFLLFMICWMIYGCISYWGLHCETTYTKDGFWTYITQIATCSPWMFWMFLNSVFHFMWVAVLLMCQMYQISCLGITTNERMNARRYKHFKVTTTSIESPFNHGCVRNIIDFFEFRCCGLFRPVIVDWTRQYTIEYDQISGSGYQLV

**Q.** With FLAG-kiMKK7 (kinase-inactive MKK7) as the substance, how does the JNK3 phosphorylation read?
**A.** resulting in attenuated JNK3 phosphorylation
